Measured values reported in patent US20210033615A1 (DEUTSCHES KREBSFORSCHUNGSZENTRUM STIFTUNG DOES OFFENTLICHEN …, published 2021).

Assays:
[1] = molecular target: T1, 6-phosphofructo-2-kinase/fructose-2,6-biphosphatase 4 (PFKFB4) (human, UniProt Q16877 1-469); assay: NanoBiT competition in HEK293 cells
T1 construct: It was expressed inside cells (GSCs, HEK293) or in yeast two-hybrid; any tags in the coIP and Y2H are not described; also called untagged PFKFB4

[2] = molecular target: T2, PFKFB4 tagged at the C-terminal with the Large BiT (human, UniProt Q16877 1-469); assay: NanoBiT luminescence complementation in HEK293 cells; counted positive if the signal is at least 10-fold that of the negative control
T2 construct: Expressed in HEK293 cells for the NanoBiT assay; also called C-ter[LgBiT]PFKFB4; tagged PFKFB4; not shown: Large BiT (LgBiT) tag and any linker from the pLVX1.1-C[TK/LgBiT]; NanoBiT vector
Text: The NanoBiT® assay from Promega is widely used to investigate protein-protein interactions. The NanoBiT Assay is described in detail in Dixon et al., (2016) “NanoLuc Complementation Reporter Optimized for Accurate Measurement of Protein Interactions in Cells” (ACS Chem. Biol., 11, 400-408; which is incorporated herein by reference in its entirety). The inventors adapted this method to develop a cellular screening assay in order to investigate the interaction of PFKFB4 with FBXO28. In that respect, both genes were cloned into pLVX vectors containing the four NanoBiT® versions (pLVX1.1-N[TK/LgBiT], pLVX2.1-N[TK/SmBiT], pLVX1.1-C[TK/LgBiT] and pLVX2.1-C[TK/SmBiT]), allowing the small and large BiT tags to be at the N- or C-terminal of both proteins of interest. As negative control, a vector containing a HaloTag protein cloned to the small BiT was used in combination with the large BiT cloned to either FBXO28 or PFKFB4.
All vectors were transfected in HEK293 cells and the combinations were tested as depicted in FIG. 7A. The luminescent signal was detected with the Nano-Glo® Luciferase Assay System from Promega. The interaction was considered positive if the signal was at least 10-fold of the respective negative control. […]

T1 sequence (Q16877 whole entry): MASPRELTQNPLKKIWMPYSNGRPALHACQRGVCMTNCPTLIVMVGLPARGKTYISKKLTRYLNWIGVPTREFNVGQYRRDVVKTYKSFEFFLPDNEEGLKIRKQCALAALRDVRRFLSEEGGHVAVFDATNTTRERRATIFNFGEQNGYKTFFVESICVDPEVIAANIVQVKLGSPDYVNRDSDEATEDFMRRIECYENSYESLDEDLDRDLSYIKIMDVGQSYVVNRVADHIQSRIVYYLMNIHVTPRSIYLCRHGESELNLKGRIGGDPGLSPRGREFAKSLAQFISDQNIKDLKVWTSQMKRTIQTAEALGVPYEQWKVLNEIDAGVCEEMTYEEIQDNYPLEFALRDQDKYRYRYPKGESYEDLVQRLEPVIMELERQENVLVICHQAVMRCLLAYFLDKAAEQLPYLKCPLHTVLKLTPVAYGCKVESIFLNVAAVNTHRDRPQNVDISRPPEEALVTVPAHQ
T2 sequence (Q16877 whole entry): as above

B1: FBXO28 tagged at the N-terminal with the small BiT (other)
chain: MAAAAEERMAEEGGGGQGDGGSSLASGSTQRQPPPPAPQHPQPGSQALPAPALAPDQLPQNNTLVALPIVAIENILSFMSYDEISQLRLVCKRMDLVCQRMLNQGFLKVERYHNLCQKQVKAQLPRRESERRNHSLARHADILAAVETRLSLLNMTFMKYVDSNLCCFIPGKVIDEIYRVLRYVNSTRAPQRAHEVLQELRDISSMAMEYFDEKIVPILKRKLPGSDVSGRLMGSPPVPGPSAALTTMQLFSKQNPSRQEVTKLQQQVKTNGAGVTVLRREISELRTKVQEQQKQLQDQDQKLLEQTQIIGEQNARLAELERKLREVMESAVGNSSGSGQNEESPRKRKKATEAIDSLRKSKRLRNRK
notes: Expressed in HEK293 cells for the NanoBiT assay; also called N-ter[SmBiT]FBXO28; tagged FBXO28; not shown: Small BiT (SmBiT) tag and any linker from the pLVX2.1-N[TK/SmBiT]; NanoBiT vector
binding result [1]: binds | binding result [2]: binds
